Consider 5 molecules from publication doi:10.1101/2025.02.25.640118 (bioRxiv, 2025).

Data set [1] concerns the target MsyB (Escherichia coli protein MsyB) (E. coli) (UniProt P25738). In words: BLI.
For data set [2] the target is unchanged. Description: SEC.
The target of data set [3] is β-clamp (β subunit of DNA polymerase) (E. coli, UniProt P0A988 1-366). In words: BLI.
The target of the next data set is T1, IHF (E. coli, UniProt P0A6X7 1-99; P0A6Y1 1-94).
T1 sequence (looked up) 1: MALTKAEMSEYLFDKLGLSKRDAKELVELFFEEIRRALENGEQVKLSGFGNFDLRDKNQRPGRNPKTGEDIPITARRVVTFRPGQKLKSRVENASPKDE
T1 sequence (looked up) 2: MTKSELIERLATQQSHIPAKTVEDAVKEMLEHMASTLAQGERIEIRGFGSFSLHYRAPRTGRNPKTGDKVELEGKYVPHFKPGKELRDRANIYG

Another data set has as its target T2, HUαβ (E. coli, UniProt P0ACF0 1-90; P0ACF4 1-90).
T2 sequence (looked up) 1: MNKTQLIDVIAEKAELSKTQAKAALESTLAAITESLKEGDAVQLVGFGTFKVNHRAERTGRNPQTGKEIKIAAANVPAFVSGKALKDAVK
T2 sequence (looked up) 2: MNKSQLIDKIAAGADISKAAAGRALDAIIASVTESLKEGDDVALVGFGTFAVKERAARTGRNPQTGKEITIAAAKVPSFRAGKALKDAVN
Description: BLI.

The target of data set [4] is HUαα (HU alpha homodimer) (Escherichia coli, UniProt P0ACF0 1-90). Description: EMSA.

β-clamp (β subunit of DNA polymerase), sequence (P0A988 whole entry): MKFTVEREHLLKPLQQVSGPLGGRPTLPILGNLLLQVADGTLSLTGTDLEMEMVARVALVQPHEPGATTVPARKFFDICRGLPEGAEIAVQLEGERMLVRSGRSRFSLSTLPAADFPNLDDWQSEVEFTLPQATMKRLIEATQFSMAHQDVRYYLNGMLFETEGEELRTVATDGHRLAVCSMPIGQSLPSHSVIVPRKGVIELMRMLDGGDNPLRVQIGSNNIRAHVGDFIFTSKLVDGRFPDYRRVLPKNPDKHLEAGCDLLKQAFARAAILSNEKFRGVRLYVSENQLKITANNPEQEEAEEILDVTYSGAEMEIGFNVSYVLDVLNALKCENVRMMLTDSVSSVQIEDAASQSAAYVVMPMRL

On to “HUαα (from UniProt P0ACF0 1-90) (natural protein)”, for which, in data set [1], the dissociation constant (Kd) came out at 4.88 nM. The stoichiometry N in data set [2] is 1.
The molecule “β-clamp (β subunit of DNA polymerase) (from UniProt P0A988 1-366) (natural protein)” returned an equilibrium dissociation constant (Kd) in data set [1] of 700 nM.

B1: HUαα-MsyB complex (complex, E. coli)
chain 1: T2 sequence (looked up) 1
chain 2: MTMYATLEEAIDAAREEFLADNPGIDAEDANVQQFNAQKYVLQDGDIMWQVEFFADEGEEGECLPMLSGEAAQSVFDGDYDEIEIRQEWQEENTLHEWDEGEFQLEPPLDTEEGRAAADEWDER
B1 registered a dissociation constant Kd in data set [3] of 500 nM.

B2: MsyB (Escherichia coli protein MsyB) (natural protein, E. coli, UniProt P25738 1-124, looked up)
chain: B1 chain 2
Regarding B2, the results for the dissociation constant Kd with IHF and with HUαβ were 95 nM and 3.22 nM, respectively.

B3: dsDNA (DNA1/DNA2), 21 bp (dsDNA)
DNA 1: TGCTTATCAATTTGTTGCACC
DNA 2: GGTGCAACAAATTGATAAGCA
For the molecule B3, the binding result in data set [4] is “binds”.
